Target: T1, His-Spike RBD (40592-V08H) (SARS-CoV-2, UniProt P0DTC2 319-541)
T1 construct: source: bought: Sino Biological
Test: SPR; Biacore T200, CM5 sensor chip; RBD fixed to the chip by amino coupling; CD147 flowed over; binding time 90 s, dissociation time 120 s
Details: both partners purified

B1: Human His-CD147 (receptor)
chain: GTVFTTVEDLGSKILLTCSLNDSATEVTGHRWLKGGVVLKEDALPGQKTEFKVDSDDQWGEYSCVFLPEPMGTANIQLHGPPRVKAVKSSEHINEGETAMLVCKSESVPPVTDWAWYKITDSEDKALMNGSESRFFVSSSQGRSELHIENLNMEADPGQYRCNGTSSKGSDQAIITLRVRSHLAAL
notes: CD147 (basigin), human; also called human CD147; hCD147
Binder B1 has a Kd of 4.47 µM.

Reference: publication PMC9691700, “CD147 contributes to SARS-CoV-2-induced pulmonary fibrosis” (Signal Transduction and Targeted Therapy, 2022)
